Test results published in patent US20230220589A1.

How the values were obtained:
[1] = biological target: M44-modified A NTAA target peptides (M44-A-P2-peptide); test: encoding assay; P2 N;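 note: fraction of recording tags encoded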
[2] = biological target: M44-modified G NTAA target peptides (M44-G-P2-peptide); test: encoding assay; P2 N;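 note: fraction of recording tags encoded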
[3] = biological target: M44-modified P NTAA target peptides; test: encoding assay; P2 N;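 note: fraction of recording tags encoded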
[4] = biological target: M44-modified T NTAA target peptides; test: encoding assay; P2 N;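 note: fraction of recording tags encoded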
[5] = biological target: M44-modified D NTAA target peptides; test: encoding assay; P2 T;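 note: fraction of recording tags encoded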
[6] = biological target: M44-modified H NTAA target peptides; test: encoding assay; P2 T;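 note: fraction of recording tags encoded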
[7] = biological target: M44-modified S NTAA target peptides; test: encoding assay; P2 T
[8] = biological target: M44-modified W NTAA target peptides; test: encoding assay; P2 T;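 note: fraction of recording tags encoded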
[9] = biological target: M17-modified E NTAA target peptides; test: encoding assay; P2 L;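 note: fraction of recording tags encoded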
[10] = biological target: M17-modified H NTAA target peptides; test: encoding assay; P2 L;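 note: fraction of recording tags encoded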
[11] = biological target: M17-modified L NTAA target peptides; test: encoding assay; P2 L;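 note: fraction of recording tags encoded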
[12] = biological target: M17-modified Q NTAA target peptides; test: encoding assay; P2 L;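 note: fraction of recording tags encoded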
[13] = biological target: M17-modified S NTAA target peptides; test: encoding assay; P2 L;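 note: fraction of recording tags encoded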
[14] = biological target: M17-modified W NTAA target peptides; test: encoding assay; P2 L;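 note: fraction of recording tags encoded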
[15] = biological target: M17-modified Y NTAA target peptides (M17-Y-P2-peptide); test: encoding assay; P2 L;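 note: fraction of recording tags encoded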
[16] = biological target: M17-modified A NTAA target peptides; test: encoding assay; P2 N;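 note: fraction of recording tags encoded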
[17] = biological target: M17-modified D NTAA target peptides; test: encoding assay; P2 N;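 note: fraction of recording tags encoded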
[18] = biological target: M17-modified E NTAA target peptides; test: encoding assay; P2 N;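 note: fraction of recording tags encoded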
[19] = biological target: M17-modified F NTAA target peptides; test: encoding assay; P2 N;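 note: fraction of recording tags encoded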
[20] = biological target: M17-modified G NTAA target peptides; test: encoding assay; P2 N;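 note: fraction of recording tags encoded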
[21] = biological target: M17-modified H NTAA target peptides; test: encoding assay; P2 N;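 note: fraction of recording tags encoded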
[22] = biological target: M17-modified I NTAA target peptides; test: encoding assay; P2 N;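 note: fraction of recording tags encoded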
[23] = biological target: M17-modified L NTAA target peptides; test: encoding assay; P2 N;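 note: fraction of recording tags encoded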
[24] = biological target: M17-modified M NTAA target peptides; test: encoding assay; P2 N;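 note: fraction of recording tags encoded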
[25] = biological target: M17-modified N NTAA target peptides; test: encoding assay; P2 N;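 note: fraction of recording tags encoded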
[26] = biological target: M17-modified P NTAA target peptides; test: encoding assay; P2 N;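 note: fraction of recording tags encoded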
[27] = biological target: M17-modified Q NTAA target peptides; test: encoding assay; P2 N;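 note: fraction of recording tags encoded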
[28] = biological target: M17-modified S NTAA target peptides; test: encoding assay; P2 N;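 note: fraction of recording tags encoded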
[29] = biological target: M17-modified T NTAA target peptides; test: encoding assay; P2 N;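 note: fraction of recording tags encoded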
[30] = biological target: M17-modified V NTAA target peptides; test: encoding assay; P2 N;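 note: fraction of recording tags encoded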
[31] = biological target: M17-modified W NTAA target peptides; test: encoding assay; P2 N;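 note: fraction of recording tags encoded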
[32] = biological target: M17-modified Y NTAA target peptides (M17-Y-P2-peptide); test: encoding assay; P2 N;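 note: fraction of recording tags encoded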
[33] = biological target: M17-modified A NTAA target peptides; test: encoding assay; P2 T;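 note: fraction of recording tags encoded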
[34] = biological target: M17-modified D NTAA target peptides; test: encoding assay; P2 T;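 note: fraction of recording tags encoded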
[35] = biological target: M17-modified E NTAA target peptides; test: encoding assay; P2 T;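 note: fraction of recording tags encoded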
[36] = biological target: M17-modified F NTAA target peptides; test: encoding assay; P2 T;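 note: fraction of recording tags encoded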
[37] = biological target: M17-modified G NTAA target peptides; test: encoding assay; P2 T;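 note: fraction of recording tags encoded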
[38] = biological target: M17-modified H NTAA target peptides; test: encoding assay; P2 T;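 note: fraction of recording tags encoded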
[39] = biological target: M17-modified I NTAA target peptides; test: encoding assay; P2 T;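 note: fraction of recording tags encoded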
[40] = biological target: M17-modified L NTAA target peptides; test: encoding assay; P2 T;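 note: fraction of recording tags encoded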
[41] = biological target: M17-modified M NTAA target peptides; test: encoding assay; P2 T;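 note: fraction of recording tags encoded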
[42] = biological target: M17-modified N NTAA target peptides; test: encoding assay; P2 T;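 note: fraction of recording tags encoded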
[43] = biological target: M17-modified P NTAA target peptides; test: encoding assay; P2 T;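 note: fraction of recording tags encoded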
[44] = biological target: M17-modified Q NTAA target peptides; test: encoding assay; P2 T;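 note: fraction of recording tags encoded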
[45] = biological target: M17-modified S NTAA target peptides; test: encoding assay; P2 T;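 note: fraction of recording tags encoded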
[46] = biological target: M17-modified T NTAA target peptides; test: encoding assay; P2 T;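 note: fraction of recording tags encoded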
[47] = biological target: M17-modified V NTAA target peptides; test: encoding assay; P2 T;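 note: fraction of recording tags encoded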
[48] = biological target: M17-modified W NTAA target peptides; test: encoding assay; P2 T;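 note: fraction of recording tags encoded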
[49] = biological target: M17-modified Y NTAA target peptides (M17-Y-P2-peptide); test: encoding assay; P2 T;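 note: fraction of recording tags encoded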
[50] = biological target: M17-modified S NTAA target peptides; test: encoding assay; P2 A;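 note: fraction of recording tags encoded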
[51] = biological target: M17-modified M NTAA target peptides; test: encoding assay; P2 Q;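 note: fraction of recording tags encoded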
[52] = biological target: M44-modified A NTAA target peptides (M44-A-P2-peptide); test: Gini coefficient of P2 tolerance from multiplex encoding heatmap
[53] = biological target: M44-modified A NTAA target peptides (M44-A-P2-peptide); test: Gini coefficient of P1 selectivity from multiplex encoding heatmap

B1: engineered M44-L binder (SEQ ID NO: 31) (designed binder, not shown: small tags and cut ends; large carriers)
chain: QDSTQNLIPAPPLISVPLQPGFWTERFQGRWFLVGFAGNAVQKERQSRLTMQSLILELQEDNSYNITAINVRGQGCRYIISTLVPSSRPGQFTLGNIHSYPQIQSLDVQVADTDYDQFAMVFLQGTSENKQYFEVALAGRTKGLSDELKERFVSFAKSLGLKDNNIVFSVPTDQCIDN
encoding yield [1]: 0.02 | encoding yield [2]: 0.02 | encoding yield [3]: 0.01 | encoding yield [4]: 0.01 | encoding yield [5]: 0.01 | encoding yield [6]: 0.02 | encoding yield [7]: 0.01 | encoding yield [8]: 0.01

B2: engineered M17-Y binder (SEQ ID NO: 61) (designed binder, not shown: small tags and cut ends; large carriers)
chain: TVPDRSEIAGKWYVVALASNTEFYLREKDWVKSAMARISFLGEDELKVSSAVPSPNGCYKVERTWKKTSDDGEVYNSRAAKLKVEVLDTDYKSYAVIYATRVKDGRTDHQMILYSRSPEVSPAATAIFRKLAGERNYTDEMVAMLPRQEECTVDEV
encoding yield [9]: 0.03 | encoding yield [10]: 0.02 | encoding yield [11]: 0.06 | encoding yield [12]: 0.02 | encoding yield [13]: 0.03 | encoding yield [14]: 0.01 | encoding yield [15]: 0.17 | encoding yield [16]: 0.02 | encoding yield [17]: 0.02 | encoding yield [18]: 0.02 | encoding yield [19]: 0.02 | encoding yield [20]: 0.03 | encoding yield [21]: 0.03 | encoding yield [22]: 0.02 | encoding yield [23]: 0.02 | encoding yield [24]: 0.01 | encoding yield [25]: 0.03 | encoding yield [26]: 0.01 | encoding yield [27]: 0.02 | encoding yield [28]: 0.02 | encoding yield [29]: 0.01 | encoding yield [30]: 0.02 | encoding yield [31]: 0.02 | encoding yield [32]: 0.06 | encoding yield [33]: 0.03 | encoding yield [34]: 0.01 | encoding yield [35]: 0.01 | encoding yield [36]: 0.06 | encoding yield [37]: 0.04 | encoding yield [38]: 0.01 | encoding yield [39]: 0.06 | encoding yield [40]: 0.04 | encoding yield [41]: 0.01 | encoding yield [42]: 0.02 | encoding yield [43]: 0.01 | encoding yield [44]: 0.03 | encoding yield [45]: 0.01 | encoding yield [46]: 0.02 | encoding yield [47]: 0.03 | encoding yield [48]: 0.01 | encoding yield [49]: 0.14

B3: upgraded binder after additional maturation round (SEQ ID NO: 62) (designed binder, not shown: small tags and cut ends; large carriers)
chain: TVPDRSEIAGKWYVVALASNTEFYLRGKDRVKSAMVRISFQGEDELKVSSAVPSPNGCYKVERTWKKTSDDGEVYNSRAAKLKVEVLDTDYKSYAVIYATRVKDRRTDHQMILYSRSPDVSPAATAIFRKLAGERNYTDEMVAMLPRQEECTVDEV
encoding yield [50]: 0.01 | encoding yield [9]: 0.03 | encoding yield [10]: 0.04 | encoding yield [11]: 0.12 | encoding yield [12]: 0.03 | encoding yield [13]: 0.03 | encoding yield [14]: 0.04 | encoding yield [15]: 0.29 | encoding yield [16]: 0.02 | encoding yield [17]: 0.02 | encoding yield [18]: 0.03 | encoding yield [19]: 0.01 | encoding yield [20]: 0.03 | encoding yield [21]: 0.03 | encoding yield [22]: 0.03 | encoding yield [23]: 0.03 | encoding yield [24]: 0.02 | encoding yield [25]: 0.04 | encoding yield [26]: 0.02 | encoding yield [27]: 0.02 | encoding yield [28]: 0.02 | encoding yield [29]: 0.01 | encoding yield [30]: 0.03 | encoding yield [31]: 0.02 | encoding yield [32]: 0.15 | encoding yield [51]: 0.01 | encoding yield [33]: 0.02 | encoding yield [34]: 0.02 | encoding yield [35]: 0.02 | encoding yield [36]: 0.08 | encoding yield [37]: 0.05 | encoding yield [38]: 0.02 | encoding yield [39]: 0.1 | encoding yield [40]: 0.08 | encoding yield [41]: 0.02 | encoding yield [42]: 0.02 | encoding yield [43]: 0.01 | encoding yield [44]: 0.02 | encoding yield [45]: 0.01 | encoding yield [46]: 0.04 | encoding yield [47]: 0.05 | encoding yield [48]: 0.02 | encoding yield [49]: 0.24

B4: engineered M44-A binder (SEQ ID NO: 42) (designed binder, not shown: small tags and cut ends; large carriers)
chain: QVSVQPNFQQDKFLGRWFVAGLASNSSWDREKVAALSGAKMVVAPATDGGLNVTRTMLRKNQCETYTGLLQPAGSLGSYSWRSPHPGSTGSESVVETDYDQYALVYGQGSKGPGEDLRAAALWSRTQTPRAELKEKFTAFSKAQGFTEDTIVFLPQTDKCMTEQ
encoding yield [1]: 0.1 | encoding yield [2]: 0.03 | encoding yield [3]: 0.02 | encoding yield [4]: 0.02 | encoding yield [5]: 0.02 | encoding yield [6]: 0.01 | encoding yield [7]: 0.01 | encoding yield [8]: 0.01 | P2 score [52]: 0.376 | P1 score [53]: 0.31
